Test results published in patent US20150210761A1 (SAMSUNG ELECTRONICS, published 2015).

Tests used:
Assay in all cases: ELISA; antibody coated, FLAG-tagged full-length Ang2 mutant, anti-FLAG-HRP detection
[1] = target: T1, Ang2 mutant I434 (full-length Ang2) (human, UniProt O15123 19-496, limits assumed)
T1 sequence: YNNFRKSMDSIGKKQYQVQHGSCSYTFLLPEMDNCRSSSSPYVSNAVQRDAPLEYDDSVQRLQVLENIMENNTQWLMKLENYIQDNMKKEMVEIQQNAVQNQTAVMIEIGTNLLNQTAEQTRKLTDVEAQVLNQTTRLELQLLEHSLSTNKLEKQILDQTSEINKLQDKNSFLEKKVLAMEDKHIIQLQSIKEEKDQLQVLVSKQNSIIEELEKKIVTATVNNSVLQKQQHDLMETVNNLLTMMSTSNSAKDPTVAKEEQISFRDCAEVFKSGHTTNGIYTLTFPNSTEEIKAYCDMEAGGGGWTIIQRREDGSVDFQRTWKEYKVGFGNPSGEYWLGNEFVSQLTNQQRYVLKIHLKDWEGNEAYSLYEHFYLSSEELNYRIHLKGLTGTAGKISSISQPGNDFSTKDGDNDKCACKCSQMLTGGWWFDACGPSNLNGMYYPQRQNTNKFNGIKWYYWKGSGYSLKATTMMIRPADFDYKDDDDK
Procedure: (§1) A 96-well MaxiSorp™ flat-bottom plate (Nunc) was coated with 50 μl of each anti-Ang2 antibody (400 nM). After that, the plate was washed five times with 0.05% (v/v) Tween-20-containing PBS (PBST) and then blocked with 1% (v/v) BSA-containing PBS at a room temperature for 2 hours. S417, P419, N421, I434, D448, A449, P452, Y460, N467, K468, or F469 residue of Ang2 (SEQ ID NO: 27) was mutated (substituted) with alanine and tagged with FLAG (N-[…]-C; 1012 Da) and then 250 ng of them was each added to each well to the plate, which was allowed to react at a room temperature for 2 hours.
(§2) Thereafter, the plate was washed five times with 0.05% (v/v) Tween-20-containing PBS and then, an HRP-conjugated anti-FLAG antibody (SIGMA) diluted in 1% (v/v) BSA-containing PBS at 1:5,000 ratio (v/v) was added in the amount of 50 μl to each well to react at a room temperature for 1 hour, followed by washing five times with 0.1% (v/v) Tween-20-containing PBS.
(§3) Finally, 100 μl of TMB substrate (cell signal) was added to each well of the plate to induce color development for 3 minutes and then, the reaction was ceased by the addition of 100 μl of stop solution (Cell signaling) and OD450 values were measured on a plate reader (Molecular Devices). By comparing binding intensity to mutated Ang2 to binding intensity to non-mutated (native) Ang2, each epitope for the Ang2 antibodies was identified.

[2] = target: T2, Ang2 mutant K468 (full-length Ang2) (human, UniProt O15123 19-496, limits assumed)
T2 sequence: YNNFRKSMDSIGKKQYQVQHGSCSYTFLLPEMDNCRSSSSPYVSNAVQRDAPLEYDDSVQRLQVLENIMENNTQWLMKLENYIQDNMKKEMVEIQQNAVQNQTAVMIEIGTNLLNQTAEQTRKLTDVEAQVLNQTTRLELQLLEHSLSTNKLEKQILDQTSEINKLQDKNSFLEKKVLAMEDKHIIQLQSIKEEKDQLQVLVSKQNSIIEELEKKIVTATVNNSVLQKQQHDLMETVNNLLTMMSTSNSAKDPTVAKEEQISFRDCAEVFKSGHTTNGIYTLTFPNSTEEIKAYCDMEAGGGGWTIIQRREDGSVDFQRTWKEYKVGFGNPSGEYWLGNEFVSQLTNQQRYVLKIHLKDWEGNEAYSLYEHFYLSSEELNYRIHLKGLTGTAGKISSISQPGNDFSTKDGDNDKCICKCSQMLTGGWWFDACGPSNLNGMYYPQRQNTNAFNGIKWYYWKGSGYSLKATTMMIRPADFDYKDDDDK
Procedure: as §1, §2, §3

[3] = target: T3, Ang2 mutant F469 (full-length Ang2) (human, UniProt O15123 19-496, limits assumed)
T3 sequence: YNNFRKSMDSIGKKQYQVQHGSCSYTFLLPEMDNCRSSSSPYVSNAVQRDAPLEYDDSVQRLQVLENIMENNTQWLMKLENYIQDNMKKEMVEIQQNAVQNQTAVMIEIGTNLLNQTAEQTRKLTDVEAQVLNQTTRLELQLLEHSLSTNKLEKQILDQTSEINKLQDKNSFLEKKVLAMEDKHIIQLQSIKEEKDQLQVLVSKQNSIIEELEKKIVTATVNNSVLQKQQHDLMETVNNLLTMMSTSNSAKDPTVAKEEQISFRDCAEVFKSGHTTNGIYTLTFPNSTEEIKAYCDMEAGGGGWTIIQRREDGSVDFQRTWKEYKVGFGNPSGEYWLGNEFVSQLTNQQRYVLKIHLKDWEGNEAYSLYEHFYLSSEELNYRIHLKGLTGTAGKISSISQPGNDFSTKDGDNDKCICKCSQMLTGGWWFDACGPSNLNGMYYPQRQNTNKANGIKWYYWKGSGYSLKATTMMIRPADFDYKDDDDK
Procedure: as §1, §2, §3

B1: SAIT-ANG2-AB-m8D3 (antibody, V domains shown)
VH: EVQLQQSGPELVKPGDSVKMSCKASGYTFTDYYMKWVRQSHGKSLQWVGEINPKNGDTFYNQIFKGKATLTVDKSSSTAYMQLTSLTSEDSAVYYCTRENDYDVGFFDYWGQGTSVTVSS
VL: TIVMTQTPKFLLVSAGDRITITCKASQSVSNDVAWYQQKPGQSPKLLIYYASNRYPGVPDRFTGSGYGTDFTFTISTVQAEDLAVYFCQQDYTSPWTFGGGTELEIK
notes: also called hybridoma KCLRF-BP-00308
Binding (%) (mutant Ang2 / native Ang2) [1]: 137% | Binding (%) (mutant Ang2 / native Ang2) [2]: 20.5% | Binding (%) (mutant Ang2 / native Ang2) [3]: 41.9%
